{"source": "the DeepSol protein solubility set", "data": [{"test": "soluble on expression in E. coli; label from the status in PepcDB or PDB records", "values": [{"sequence": "MALNVIKISRVSLVTNSVEPLVLPLTFFDLLWLKLNPIERVTFYKLTESSRDSFFSSILPKLEQSLSLVLSHFLPLSGHLKWNPQDPKPHIVIFPKDTVSLTVVESEADFSYISSKELRLETELRPLVPELQVSSDSASLLSLQITLFPNQGFSIGTTVHHVVMDGKTASKFHKSWAHICKHGTTPQDFDLPTVLDRTVINVPAGLEQKIFQLSSYISEEKDYARTLTLPPAKEIDNDVVRVTLELTEVDIEKLKERAKNESTRSDLHLSTFVVSYAYVLTCMVKSCGGDANRPVRFMYAADFRNRLDPPVPLTYFGNCVLPIDFNGYKATTFLGKDGYVNGVEILSDSVRGLGSRNIESIWEVYEDGTKNMKLDTQNVTVTGSNQFGIYGSDFGWGRPVKTDVMSLYKNNEFSMSARRDEIGGLEIGISLKKCEMNVFLSLFTSDFDIYK", "soluble on expression in E. coli": "soluble"}, {"sequence": "MALQGISVMELSGLAPGPFCAMVLADFGARVVRVDRPGSRYDVSRLGRGKRSLVLDLKQPRGAAVLRRLCKRSDVLLEPFRRGVMEKLQLGPEILQRENPRLIYARLSGFGQSGSFCRLAGHDINYLALSGGRNSIFKFFSVENSEIESVGSTSRTEHVGWWSTFLYDLQDSRWGIHGCWSNRTPVLRAADQRTWTKV", "soluble on expression in E. coli": "not soluble"}, {"sequence": "MALQLGRLSSGPCWLVARGGCGGPRAWSQCGGGGLRAWSQRSAAGRVCRPPGPAGTEQSRGLGHGSTSRGGPWVGTGLAAALAGLVGLATAAFGHVQRAEMLPKTSGTRATSLGRPEEEEDELAHRCSSFMAPPVTDLGELRRRPGDMKTKMELLILETQAQVCQALAQVDGGANFSVDRWERKEGGGGISCVLQDGCVFEKAGVSISVVHGNLSEEAAKQMRSRGKVLKTKDGKLPFCAMGVSSVIHPKNPHAPTIHFNYRYFEVEEADGNKQWWFGGGCDLTPTYLNQEDAVHFHRTLKEACDQHGPDLYPKFKKWCDDYFFIAHRGERRGIGGIFFDDLDSPSKEEVFRFVQSCARAVVPSYIPLVKKHCDDSFTPQEKLWQQLRRGRYVEFNLLYDRGTKFGLFTPGSRIESILMSLPLTARWEYMHSPSENSKEAEILEVLRHPRDWVR", "soluble on expression in E. coli": "not soluble"}, {"sequence": "MALRDSFNKIISYFDTDEVSEVEEPAVASVKRQQDAAQPASQQQKAQSHQYHQSASRPSQQQVQSGQNRRSGEENIHSLPTRRQSHNQQPAQEKTTIALKLPRKYEDAEEIVDLLIRNECVLIDFQYMLEAQARRCLDFIDGASKVLAGNLQKVGASMYLLTPINVIVDAEEMTLAANGQDVSFNYDMKRRLEHHHHHH", "soluble on expression in E. coli": "not soluble"}, {"sequence": "MAMGQLQHGIDDENATKQTQKYRDAEQSKKTAYDQAVAAAKAILNKQTGSNSDKAAVDRALQQVTSTKDALNGDAKLAEAKAAARQNLGTLNHITNAQRTALEGQINQATTVDGVNTVKTNANTLDGAMNSLQGAINDKDATLRNQNYLDADESKRNAYTQAVTAAEGILNKQTGGNTSKADVDNALNAVTRAKAALNGAENLRNAKTSATNTINGLPNLTQLQKDNLKHQVEQAQNVVGVNGVKDKGNLEHHHHHH", "soluble on expression in E. coli": "soluble"}, {"sequence": "MAMQMQLEANADTSVEEESFGPQPISRLEQCGINANDVKKLEEAGFHTVEAVAYAPKKELINIKGISEAKADKILAEAAKLVPMGFTTATEFHQRRSEIIQITTGSKELDKLLQGGIETGSITEMFGEFRTGKTQICHTLAVTCQLPIDRGGGEGKAMYIDTEGTFRPERLLAVAERYGLSGSDVLDNVAYARAFNTDHQTQLLYQASAMMVESRYALLIVDSATALYRTDYSGRGELSARQMHLARFLRMLLRLADEFGVAVVITNQVVAQVDGAAMFAADPKKPIGGNIIAHASTTRLYLRKGRGETRICKIYDSPCLPEAEAMFAINADGVGDAKD", "soluble on expression in E. coli": "soluble"}]}]}
